Results from patent publication US20250326848A1 (SHANGHAI HENLIUS BIOTECH, published 2025).

How the values were obtained:
[1] = target: T1, human CD47 on primary human platelets (human, UniProt Q08722 19-323); experiment: FACS, binding to primary human platelets, donor1
T1 construct: whole, on cells

[2] = target: T1, human CD47 on primary human platelets; experiment: FACS, binding to primary human platelets, donor 2

B1: M1 #21, anti-CD47 antibody (WO2022063316A1) (antibody, V domains shown)
VH: QVQLQQWGAGLLKPSETLSLTCAVYGGSFSGYYWSWIRQPPGKGLEWIGEINQSGSTNYNPSLKSRVTISVDTSKNQFSLRLSSVTAADTAMYYCARFTGRPYYGMDVWGQGTTVTVSS
VL: SYELTQPPSVSATPGQRVTISCSGSESNIGSHKVKWYQQFAGAAPRLLIHGNDQRFSGVPDRFSGSKSGTSASLAISGLQSEDEADYYCAAWDDSLYGRVFGGGTKLTVL
For B1, the “EC50 (read off the curve)” value [1] was ~0.7 nM and the “EC50 (read off the curve)” value [2] was ~0.3 nM.
